Test: soluble on expression in E. coli; label from the status in PepcDB or PDB records

Sequence | soluble on expression in E. coli
MGSDKIHHHHHHMRKLPPLRALQVFEAAARHLHFSRAAEELCLTQSAVSHQVRGLEQHLGQTLFARRGRELALTPKGEQLFLAVQSALDGLDSLCRQLNEAESRELRLAVYSSFAVKWLIPRLGDFRRQHPGIKIHLEMVSGDPPLSDQVADMFICGEQHQRGFWQTLLRPERLIPVCSPALANALGEALVMPLRLDSLPLLSVDEADIGPDWARWAKSQAQTLTQAQLQSYSHVLLAIEAAIAGQGIALASDFIVEGDIAAGKLMALPWPALETGFGFHFCCRERRLKEPAMAAFAEWIQQQAAMAG | not soluble
MTEAQLTLPTTKLSPTQKTQFIKLEKKLRRNVGQAIAQYNMIEDGDKVMVCLSGGKDSYAMLSILMLLKESAPIHFDIIAVNLDQKQPGFPEHILPEYLDKLGIEYHIVEEDTYGIVKEKVPEGKTTCSLCSRLRRAVLYKAAKKIGATKIALGHHRDDMIETLMLNMFYGGKMKAMPAKLVSDNGEHVVIRPLAFCKESELIQYSELKHFPIIPCNL | not soluble
MSDEREVAEAATGEDASSPPPKTEAASDPQHPAASEGAAAAAASPPLLRCLVLTGFGGYDKVKLQSRPAAPPAPGPGQLTLRLRACGLNFADLMARQGLYDRLPPLPVTPGMEGAGVVIAVGEGVSDRKAGDRVMVLNRSGMWQEEVTVPSVQTFLIPEAMTFEEAAALLVNYITAYMVLFDFGNLQPGHSVLVHMAAGGVGMAAVQLCRTVENVTVFGTASASKHEALKENGVTHPIDYHTTDYVDEIKKISPKGVDIVMDPLGGSDTAKGYNLLKPMGKVVTYGMANLLTGPKRNLMALARTWWNQFSVTALQLLQANRAVCGFHLGYLDGEVELVSGVVARLLALYNQGHIKPHIDSVWPFEKVADAMKQMQEKKNVGKVLLVPGPEKEN | soluble
MGHHHHHHSHMSNPRSLEEEKYDMSGARLALILCVTKAREGSEEDLDALEHMFRQLRFESTMKRDPTAEQFQEELEKFQQAIDSREDPVSCAFVVLMAHGREGFLKGEDGEMVKLENLFEALNNKNCQALRAKPKVYIIQACRGEQRDPGETVGGDEIVMVIKDSPQTIPTYTDALHVYSTVEGYIAYRHDQKGSCFIQTLVDVFTKRKGHILELLTEVTRRMAEAELVQEGKARKTNPEIQSTLRKRLYLQ | not soluble
RIQKLREATDKVASGDYDIHLENSYGDEIGVLASDFNIMAKKLKQSRDEIERLEKRRRQFIADVSHELKTPLTTINGLVEGLNSHTIPEDKKDKCFSLISEETKRMLRLVKENLDYEKIRSQQITLNKLDVPLIEVFEIVKEHLQQQAEEKQNKLMIQVEDHVIVHADYDRFIQILVNITKNSIQFTQNGDIWLRGMEGYKETIIEIEDTGIGIPKEDIEHIWERFYKADISRTNTAYGEYGLGLSIVRQLVEMHQGTVEIKSE | not soluble
PELPEVETSRRGIEPHLVGATILHAVVRNGRLRWPVSEEIYRLSDQPVLSVQRRAKYLLLELPEGWIIIHLGMSGSLRILPEELPPEKHDHVDLVMSNGKVLRYTDPRRFGAWLWTKELEGHNVLTHLGPEPLSDDFNGEYLHQKCAKKKTAIKPWLMDNKLVVGVGNIYASESLFAAGIHPDRLASSLSLAECELLARVIKAVLLRSIEQGGTTLKDFLQSDGKPGYFAQELQVYGRKGEPCRVCGTPIVATKHAQRATFYCRQCQK | soluble
MFMREIELRGHIIDSLILPKVFDKILDMGGDYKVLEFEIGKRKTDPSYAKILVIGRDERHVDEILNELRDLGAEIPEIEEVELQPAEKDMVLPEGFYSTTNHKTFIRFKGKWIEVENQKMDGAIVVYPDEMRAEVKTIRNIKKGDLVVVGHKGVRVIPPEKPREGGGLFEFMKSDASSEKPKETIIRRIAKEMYEIREKYRKTGKGGIVVVGGPAIIHTGAGWALAKLIRMGYVQALFAGNALATHDIESVLYGTSLGVDLKTGKSVPGGHSHHLRAINTIMRAGSIKDAVEQGILKEGVMYECIKNNIPYVLAGSIRDDGPLPDVITDVVKAQEKMRELLKGKDMVLMLSTMLHSIATGNLLPSWVKTICVDINPAVVTKLMDRGTSQALGIVTDVGVFLPMLVEELEKLEKEKEKSEKREELEHHHHHH | soluble
GPGSMFVSDNDDYLPEPQAPGDHHMHEERLRRLEENFALLLNQRSVGNASGPKESTPKARVTAVAADVQAADERSLKLTYELRELVPHLSPGFDCCSADALLLLSAIRNGSHGRGCESWEDRLAVVKAEKRSLHHQLEKKAQECEELKNAVAEMKQRLKAERQEALSSVNVLSQRREQVRKQLLLEESRSQKLQVRNGQLESELERLKDMLHSCMRR | not soluble
VRRGQLIDAAREITAQHGVAALTIRGVAEAAGVSLGVVHYHFEDKEELLTEMGQSLILEVSEAMRMAFSQLVGPLKKRGVPGLRELLCAGIRGLWPIIEATPDQQLLTYEITAQALRQRGAGNDSAGLVAARQYRTMDTEAVAFLNLCAHRAGVTWGTPVDQVARFALAVLDGAVLRWLVDRDSDAARTAFDDLVQIIAAKALEGEGSW | not soluble
MGSSHHHHHHSSGLVPRGSHMILTLTLNPSVDISYPLTALKLDDVNRVQEVSKTAGGKGLNVTRVLAQVGEPVLASGFIGGELGQFIAKKLDHADIKHAFYNIKGETRNCIAILHEGQQTEILEQGPEIDNQEAAGFIKHFEQLLEKVEAVAISGSLPKGLNQDYYAQIIERCQNKGVPVILDCSGATLQTVLENPYKPTVIKPNISELYQLLNQPLDESLESLKQAVSQPLFEGIEWIIVSLGAQGAFAKHNHTFYRVNIPTISVLNPVGSGDSTVAGITSAILNHENDHDLLKKANTLGMLNAQEAQTGYVNLNNYDDLFNQIEVLEV | soluble
MKETIIVVHERPDIYDPVFIEGLPGIGLVGKLAAEHLIQELKAKKFAELYSPHFMHQVLIRKGSIVELMKNEFYYWKSPDDEHRDLIIVTGDTQVPPTDSYGHFEVAGKMLDFVQEFGTREIITMGGYQVPELQGEPRVLAAVTHPDLISYYQEKLKDCKVNVMWREDEGGAIVGAAGLLLGIGKLRGMFGISLLGESLGYIVDAKAAKAVLTAVAKILGLEIDMTALEERAKETEEILRKVEEMQRTIMEQQLPRPTHEEEDRGYL | not soluble
AIATLEKKEYGAPGFWPGSMIGRVHAFETPAPLTRAQLDRLRDEFFETRTEGHLEIWTAIRAASHAQEAGDDELAYAIITAVGILPAEVGPAGEGLGERIPFAEQPLDRLLGMICGCCFPAFTRYRTLERVYDQRGFLYETPKECIATPSNVLPDESTEASAR | soluble
RRAELNTNETDESEKVIEGYFAVFNSETELFPGAFEEILPGAFDNTLENDVRALINHDTALVLGRNVSKTLSLRVDDKGLWGQIKINPLDSDAINLYERVKRGDVSQCSFGFNIIKEQEEWRDDGSVKWSLEEVELHEVSVCTFPAY | not soluble
MLMPRQTTPPLSLPLVGGGRFDLSAETSTRWTLICFYRGLHCPICATYLKELEKRVADFAERGVACVAVSSDSEERAQAMAEKVGGGTLRFAYDLPLAEARDWGLYISTSRGKTSIGIEEPALFSEPGLFLVTPERTLYYGAVQTMPFVRPHFSELVAALDFAIPNNYPARGEYTGAV | soluble
MNTKLTKIISGLFVATAAFQTASAGNITDIKVSSLPNKQKIVKVSFDKEIVNPTGFVTSSPARIALDFEQTGISMDQQVLEYADPLLSKISAAQNSSRARLVLNLNKPGQYNTEVRGNKVWIFINESDDTVSAPARPAVKAAPAAPAKQQAAAPFTESVVSVSAPFSPAKQQAAASAKQTNIDFRKDGKNAGIIELAALGFAGQPDISQQHDHIIVTLKNHTLPTALQRSLDVADFKTPVQKVTLKRLNNDTQLIITTTGNWELVNKSAAPGYFTFQVLPKKQNLESGGVNNAPKTFTGRKISLDFQDVEIRTILQILAKESGMNIVASDSVSGKMTLSLKDVPWDQALDLVMQARNLDMRQQGNIVNIAPRDELLAKDKAFLQAEKDIADLGALYSQNFQLKYKNVEEFRSILRLDNADTTGNRNTLVSGRGSVLIDPATNTLIVTDTRSVIEKFRKLIDELDVPAQQVMIEARIVEAADGFSRDLGVKFGATGRKKLKNETSAFGWGVNSGFGGGDKWEAQTKINLPVAAAANSISLVRAISSGALNLELSASESLSKTKTLANPRVLTQNRKEAKIESGYEIPFTVTTASGGGNSTNTELKKAVLGLTVTPNITPDGQIIMTVKINKDSPAQCASGNNTILCISTKSLNTQAMVENGGTLIVGGIYEENNGNTLTKVPLLGDIPVIGNLFKTRGKKTDRRELLIFITPRIIDTAGNSLRY | not soluble
MSLDTTGITPTSIRIGSTSPQSGPVSAYGVQARCQAAYFKMINDRGGIAGRKIDFIYYDDAFNPAKTVEQTRKLVESDEVALLFSNLGTATNSAIVKYANAKKIPHLFLSVNGDKWSDYKAHPWSIGFAPSARTEAAIFVKHMLAEKPDAKFAVLYQNDDFGKDFVLGAKDVLGERESRQLVTISHETSDPTIDSQILQLRAAAPDALISGTTAKFTAQAIRKVAETRWQVRHYITGGSSSYAGTIGPAGPENAVGVISSAYLKDVADPAWKDDQGIKDFLAFMQSYFPEGNKDDFYNLYAYTVASALVKVLTQCGDGWTRENIMAQATNLKDVELPTLLPGIRVNTSPTDYRPLTQVQLQKWDGKAWVRFGDVLGAEGHHHHHH | soluble
MKTLMVFDPAMCCSTGVCGTDVDQALVDFSTDVQWLKQCGVQIERFNLAQQPMSFVQNEKVKAFIEASGAEGLPLLLLDGETVMAGRYPKRAELARWFGIPLDKVGLAPG | soluble
GPGSMIQSDIVSYVGEMGDVPDALLITPLKDRKSSVYLTKYEVARIIGERARQIVNGTSVLLDSQNGCGTGNSLELAEGCADPFAASVDPIHITKLELLQGRIPMIVRRTWPDGRTENIPVNELKVDKMLLDVQH | not soluble
MSLRIESGVCYVINEFCALGNTYMPIDKLVKNCINVLNVKKEEVEKAIYECTLSQKIKVEIINGENCVFTMEYYYCEIGITRKIITLAYDSYKSLEIDVDQKIIQFENENKIKFAPSQVEAIEGAFSNGIEVITGGPGTGKTTIIRCITYIFEELNMKVFMAAPTGRAAKRMSESTGREAKTIHRMLELGYEDEVFFDNNNYSTLQCDVVIIDEASMIDVVLMNSLLKSIGMGTRVIIVGDVDQLPSVGPGNVLRDIIESKCVKVIRLNNIFRQAKESMITVNAHKINSGEMPLLNKKDKDFYFIREDNAEAITNTIISLVYKRLPLFNKSWKAARDIQVLAPMKKGIAGVANLNVSLQSIINPPHKSKDEIKFRDNIFRVGDKVMQIKNNYMLKEGHHHHHH | not soluble
MSKRKAEEAPAPKLASIFTKKVKPAEEDNNQKSWKFVCWNVAGLRACVKKSDFKEVLAEEPDLVFLGETKCKEWPPEMEETFKNYTKTLVVSTEKNGGYAGVGLLSKCAPMKVHKGIGDPEFDTAGRLIIAEFSKFYFIGAYVPNSGAKLVNLEKRGRWEKLLTEKMKEMDEKKPVIYGGDLNVAHNEIDLKNPESNRNKTAGFTDQERGWFSEMLELGFTDTFRAMHPDEKKYSFWSYLANSRQKDVGWRLDYYVVSNRIMNKVKRSDIMSSVMGSDHAPVVMQIDF | soluble
MAVPSGVHRCFFRGQSVSLEKLLSIFASEVCEQVVFIGENHEHSVAQQLELRILEALWLSSQRQNRQLLLSLEFLDRSQQHVLNEAMLRDEIESVVPEPYVPLVRFARTNNLAVLAANAPRSITSRVAKQGQQAVMETLSPKERAWCAPTPWPAPSNAYSEAFQAIMQQVMRPDPSSAQAQQERMQRMLQAQSLWDATMAFSIAEALERYPKAQVLHVTGFFHVANRLGTVEMLAHYRNTVNALVSIVYPEELQHSTSALDGDVVIYAP | not soluble
